From patent US20250027068
Positions count from the first letter of the chain named.

B1: PRT-178 (protein)
chain: MANQEIRYSEVTPYHVTSVWTKGVTPPANFTQGEDVFHAPYVANQGWYDITKTFNGKDDLLCGAATAGNMLHWWFDQNKDQIKRYLEEHPEKQKIIFNNQELFDLKAAIDTKNHQLDSKLFEYFKEKAFPYLSTKHLGVFPDHVIDMFINGYRLSLTNHGPTPVKEGSKDPRGGIFDAVFTRGDQSKLLTSRHDFKEKNLKEISDLIKKELTEGKALGLSHTYANVRINHVINLWGADFDSNGNLKAIYVTDSDSNASIGMKKYFVGVNSAGKVAISAKEIKEDNIGAQVLGLFTLSTGQDSWNQTN
B2: PRT-182 (protein)
chain: B1 chain with I96N, N99G, Q100E, E101Q, L102M, L105V, A107E, E280K
B3: PRT-181 (protein)
chain: B1 chain with I96N, N99G, Q100E, E101Q, L102M, L105V, A107E, F195L, E197N
B4: PRT-179 (protein)
chain: B1 chain with I96N, N99G, Q100E, E101Q, L102M, L105V, A107E, T134A, K135R, H136Q
B5: PRT-185 (protein)
chain: MANQEIRYSEVTPYHVTSVWTKGVTPPANFRQGEDVFAAPYVANQGWYDITKTFNGKDDLLCGAATAGNMLHWWFDQNKDQIKRYLEEHPEKQKINFNGEQMFDVKELNTYESDHGYRDKSKLFEYFKEKAFPYLSTKHLGVFPDHVIDMFINGYRLSLTNHGPTPVKEGSKDPRGGIFDAVFTRGDQSKLLTSRHDFKEKNLKEISDLIKKELTEGKALGLSHTYANVRINHVINLWGADFDSNGNLKAIYVTDSDDKKLTIGDERIGMKKYFVGVNSAGKVAISAKEIKEDNIGAQVLGLFTLSTGQDSWNQTN
B6: PRT-189 (protein)
chain: MANQEIRYSEVTPYHVTSVWTKGVTPPDHDFANFTQGEDVFHAPYVANQGWYDITKTFNGKDDLLCGAATAGNMLHWWFDQNKDQIKRYLEEHPEKQKINFNGEQMFDVKEAIDTKNHQLDSKLFEYFKEKAFPYLSTKHLGVFPDHVIDMFINGYRLSLTNHGPTPVKEGSKDPRGGIFDAVFTRGDQSKLLTSRHDFKEKNLKEISDLIKKELTEGKALGLSHTYANVRINHVINLWGADFDSNGNLKAIYVTDSDSNASIGMKKYFVGVNSAGKVAISAKEIKEDNIGAQVLGLFTLSTGQDSWNQTN
B7: PRT-190 (protein)
chain: B6 chain with A32R, N33K, F34I, T35V, Q36D
B8: PRT-180 (protein)
chain: MANQEIRYSEVTPYHVTSVWTKGVTPPANFTQGEDVFHAPYVANQGWYDITKTFNGKDDLLCGAATAGNMLHWWFDQNKDQIKRYLEEHPEKQKINFNGEQMFDVKEAIDTKNHQLDSKLFEYFKEKAFPYLSTKHLGVFPDHVIDMFINGYRLSLTNTQSTDVNEGSKDPRGGIFDAVFTRGDQSKLLTSRHDFKEKNLKEISDLIKKELTEGKALGLSHTYANVRINHVINLWGADFDSNGNLKAIYVTDSDSNASIGMKKYFVGVNSAGKVAISAKEIKEDNIGAQVLGLFTLSTGQDSWNQTN
B9: PRT-184 (protein)
chain: B8 chain with T159H, Q160G, S161P, D163P, N165K, N304Q, Q305K, T306L, N307S
B10: PRT-183 (protein)
chain: MRNATEAYAKEVPHQVTSVWTKGVTPPANFTQGEDVFHAPYVANQGWYDITKTFNGKDDLLCGAATAGNMLHWWFDQNKDQIKRYLEEHPEKQKINFNGEQMFDVKEAIDTKNHQLDSKLFEYFKEKAFPYLSTKHLGVFPDHVIDMFINGYRLSLTNHGPTPVKEGSKDPRGGIFDAVFTRGDQSKLLTSRHDFKEKNLKEISDLIKKELTEGKALGLSHTYANVRINHVINLWGADFDSNGNLKAIYVTDSDSNASIGMKKYFVGVNSAGKVAISAKEIKEDNIGAQVLGLFTLSTGQDSWNQTN
B11: PRT-192 (protein)
chain: MANQEIRYSEVTPYHVTSVWTKGVTPPANFTQGEDVFHAPYVANQGWYDITKTFNGKDDLLCGAATAGNMLHWWFDQNKDQIKRYLEEHPEKQKINFNGEQMFDVKEAIDTKNHQLDSKLFEYFKEKAFPYLSTKHLGVFPDHVIDMFINGYRLSLTNHGPTPVKEGSKDPRGGIFDAVFTRGDQSKLLTSRHDFKEKNLKEISDLIKKELTEGKALGLSHTYANVRINHVINLWGADFDSNGNLKAIYVTDSDDKKLTISNASIGMKKYFVGVNSAGKVAISAKEIKEDNIGAQVLGLFTLSTGQDSWNQTN
B12: PRT-193 (protein)
chain: B11 chain with S261G, N262D, A263E, S264R
B13: PRT-188 (protein)
chain: MANQEIRYSEVTPYHVTSVWTKGVTPPANFRKIVDGNIAYYAAPYVANQGWYDITKTFNGKDDLLCGAATAGNMLHWWFDQNKDQIKRYLEEHPEKQKINFNGEQMFDVKELNTYESDHGYRDKSKLFEYFKEKAFPYLSTKHLGVFPDHVIDMFINGYRLSLTNHGPTPVKEGSKDPRGGIFDAVFTRGDQSKLLTSRHDFKEKNLKEISDLIKKELTEGKALGLSHTYANVRINHVINLWGADFDSNGNLKAIYVTDSDDKKLTIGDERIGMKKYFVGVNSAGKVAISAKEIKEDNIGAQVLGLFTLSTGQDSWNQTN
B14: PRT-375 (protein)
chain: MSQTEDSESLQRLRDIEDFQAEKKKQNVVYTKWLDGVDVKDHDFRKIVDGNEAYYATPLLNGRGFYDINKDFNRDNDKCAAAVAANMFHYWLDRNRDNVDRFLRQNPEKHGIIELPDGQLKLSDFLNTYESDDGYRDKSKLFDFISENFNGPVWTDKLLDNYINGYAYNYKYGRLIEDSTKNTSKINFFKEVFNEKILTNNHSIRNQNELSVLLSEALYTGKAIGLSYGPAGTRHSLGHIISVWGADLDADGNVVAIYVTDSDDKKLTIGDERVGLKRYKISTDDEGRLRLTAYEETHNTGGQIRGLWTLDTGKQAWADYFDKTEQTGTDQAEQ
B15: PRT-187 (protein)
chain: MANQEIRYSEVTPYHVTSVWTKGVTPPADFTYGEDVFHAPYVANQGWYDITKTFNGKDDLLCGAATAGNMLHWWFDQNKEQIEKYLKKHPEKQKIMFGDQELLDVRKVINTKGSQTNSELFNYFRDKAFPGLSARRLGVMPDLVLDMFINGYYLNVYKTQTTDVNRTYQEKDKRGGIFDAVFTRGDQSKLLTSRHDFKEKNLKEISDLIKQELTEGKALGLSHTYANVRINHVINLWGADFDSNGNLKAIYVTDSDSNASIGMKKYFVGVNSAGKVAISAKEIKEDNIGAQVLGLFTLSTGQDIWNQTN
B16: PRT-553 (protein)
chain: MANQEIRYSEETPKTITSIWTKGVTPPTDFIKNEDVLHAPYVANQGWYDITKTFNGKDDLLCGAATAGNMLHWWFDQNKEEIENYLKKHPEKQKINFNGEQMFDVKEAIDTKDSQTDSKLFEYFKDKAFPYLSTKHLGVFPDHVIDMFINGYRLSLTNHGPTPVKRGTKDPRGGIFDAVFTRGDQTKLLTERHDFKEKTLNEISDLIKQELTEGKALGLSHTYANVRINHVINLWGADFNSEGNLEAIYVTDSDSNASIGMKKYYVGVNAAGKVAISAKEIEDDNIGAQVLGLFTLSTGKDIWEQTNLEHHHHHH
B17: PRT-191 (protein)
chain: MANQEIRYSEVTPYHVTSVWTKGVTPPANFTQGEDVFHAPYVANQGWYDITKTFNGKDDLLCGAATAGNMLHWWFDQNKDQIKRYLEEHPEKQKINFNGEQMFDVKEAIDTKNHQLDSKLFEYFKEKAFPYLSTKHLGVFPDHVIDMFINGYRLSLTNHGPTPVKEGSKDPRGGIFDAVFTRGDQSKLLTSRHDFKEKNLKEISDLIKKELTEGKALGLSHTYANVRHSINHVINLWGADFDSNGNLKAIYVTDSDSNASIGMKKYFVGVNSAGKVAISAKEIKEDNIGAQVLGLFTLSTGQDSWNQTN
B18: PRT-186 (protein)
chain: MANQEIRYSEVTPYHVTSVWTKGVTPPANFRKIVDGNIAYYHAPYVANQGWYDITKTFNGKDDLLCGAATAGNMLHWWFDQNKDQIKRYLEEHPEKQKINFNGEQMFDVKEAIDTKNHQLDSKLFEYFKEKAFPYLSTKHLGVFPDHVIDMFINGYRLSLTNHGPTPVKEGSKDPRGGIFDAVFTRGDQSKLLTSRHDFKEKNLKEISDLIKKELTEGKALGLSHTYANVRINHVINLWGADFDSNGNLKAIYVTDSDSNASIGMKKYFVGVNSAGKVAISAKEIKEDNIGAQVLGLFTLSTGQDSWNQTN

Assays:
[1] = molecular target: pooled human IgG (human IgG1,2,3 and 4)
[2] = molecular target: pooled human IgG (human IgG1, 2, 3 and 4)

| Protein | Enzyme Activity Endpoint Assay: Fab'2 [1] [ng/µL] | Enzyme Activity Endpoint Assay: Fc [1] [ng/µL] | Enzyme Activity Endpoint Assay: IgG [1] [ng/µL] | Enzyme Activity Endpoint Assay: scIgG [1] [ng/µL] | Enzyme Activity Endpoint Assay: Fab′2 [2] [ng/µL] | Enzyme Activity Endpoint Assay: Fc [2] [ng/µL] | Enzyme Activity Endpoint Assay: IgG [2] [ng/µL] | Enzyme Activity Endpoint Assay: scIgG [2] [ng/µL] |
| --- | --- | --- | --- | --- | --- | --- | --- | --- |
| B1 | 695 | 196 | 0 | 0 | – | – | – | – |
| B2 | 563 | 167 | 0 | 27 | – | – | – | – |
| B3 | 890 | 217 | 24 | 0 | – | – | – | – |
| B4 | 697 | 187 | 0 | 0 | – | – | – | – |
| B5 | 0 | 45 | 365 | 152 | – | – | – | – |
| B6 | 469 | 307 | 0 | 101 | – | – | – | – |
| B7 | 323 | 278 | 76 | 145 | – | – | – | – |
| B8 | 690 | 197 | 0 | 0 | – | – | – | – |
| B9 | 629 | 165 | 0 | 0 | – | – | – | – |
| B10 | 630 | 175 | 0 | 0 | – | – | – | – |
| B11 | 24 | 204 | 109 | 461 | – | – | – | – |
| B12 | 39 | 193 | 181 | 355 | – | – | – | – |
| B13 | 0 | 40 | 905 | 25 | – | – | – | – |
| B14 | – | – | – | – | 170 | 115 | 0 | 180 |
| B15 | 265 | 307 | 115 | 103 | – | – | – | – |
| B16 | – | – | – | – | 79 | 229 | 111 | 764 |
| B17 | 36 | 183 | 161 | 358 | – | – | – | – |
| B18 | 646 | 218 | 9 | 0 | – | – | – | – |
